Patent US20210267939A1, “COMPOSITIONS AND METHODS FOR TREATING NAFLD/NASH AND RELATED DISEASE PHENOTYPES” (priority 2018, published 2021)

Key:
AKT = AKT ser473 phosphorylation in Fao hepatoma cells; type: cell-based; conditions: 10 μM for 1 hour
Protocol: Cell culture studies: Fao hepatoma cells (Sigma) were cultured in RPMI-1640 (Gibco) containing 10% FBS (Sigma). […] Human embryonic kidney (HEK) 293 cells were used to visualize localization of CMV-ΔMTS-BDK-GFP and control CMV-GFP constructs by confocal microscopy. Cells were plated and transfected in a 96 well glass bottom plate that had been pre-coated with poly-D lysine solution for 1-hour at room temperature. For transfection, cells were incubated in Opti-mem containing 1.5 μl of Mirus, TransIT-293 transfection reagent and 1 μg DNA per well. After 24 hours, mitochondrial and nuclear staining was performed in live cells using Image-IT Live Mito and nuclear labeling Kit (Cell permeant MitoTracker Red CMXRos (579/599 nm) and Hoechst 33342 (350/461 nm) ThermoFisher). Confocal images were captured using a Zeiss LSM 510 inverted confocal microscope using a 405 diode for Hoechst, Argon for GFP, and HeNe 561 for MitoTracker. Images were captured in one plane using a 63× oil objective. Each wavelength was acquired separately and then consolidated after acquisition.
Immunoblotting: Tissue lysates used for immunoblotting were prepared in Cell Lysis Buffer (Cell Signaling Technologies) containing protease inhibitor tablets (Roche), phosphatase inhibitor cocktails 2 and 3 (Sigma), and 10 mM PMSF. […] Immunoblots were developed using a Li-Cor Odyssey CLx and quantified using the Li-Cor software.

[1] = molecular target: 147 kDa GST-tagged human ACL (Sigma, SRP0288) (UniProt P53396)
[2] = test system: BCKD E1 (an alpha2beta2 heterotetramer)
[3] = molecular target: V5-tagged human ACL purified from Fao hepatoma cells (UniProt P53396)

O=c1[nH]c2ccccc2n1C1CCN(Cc2ccc(-c3[nH]c4cc5ncnc5cc4nc3-c3ccccc3)cc2)CC1 [A6730]
phosphorylation of ser473 on AKT (AKT): reduce

40 kDa catalytic subunit of bovine PKA (Promega, V5161)
incorporation of [gamma-32P]-phosphoryl group into ACL (purified proteins, SDS gel, autoradiograph) [1]: PKA caused a clear increase in ^32P labeling of ACL | 32P phosphorylation of BCKDH (purified proteins, SDS gel, autoradiograph) [2]: PKA caused a lesser, but still clear increase in BCKDH phosphorylation

MBP-BDK (maltose-binding protein-tagged mature BDK lacking the mitochondrial-targeting pre-sequence; amino acid residue 31-382)
incorporation of [gamma-32P]-phosphoryl group into ACL (purified proteins, SDS gel, autoradiograph) [1]: MBP-BDK also caused phosphorylation of ACL, albeit to a lesser extent than PKA | 32P phosphorylation of the purified e1a subunit of BCKDH (purified proteins, SDS gel, autoradiograph) [2]: MBP-BDK also caused a robust increase in phosphorylation of the purified e1a subunit of BCKDH

V5 tagged human BDK purified from Fao hepatoma cells
ACL phosphorylation on ser455 measured by immunoblot after mixing of the purified proteins with ATP [3]: This study confirmed that BDK specifically phosphorylates ser455 of the V5-tagged human ACL
